Assay results: publication PMC7886694

What was measured:
[1] = system: His-GlnR (Mycobacterium smegmatis); assay: BLI; conditions: 37 C, 200 mM KCl, 2 mM Mg2+, BLI: 10 mM HEPES pH 8.0, 2 mM MgCl2, 0.1 mM EDTA, 10 ug/ml BSA, 0.02% Tween-20 (running buffer), EMSA: 2 ng biotin probe in 10 uL, Beyotime …
His-PrpR = assay: BLI; conditions: 37 C, 200 mM KCl, 2 mM Mg2+, BLI: 10 mM HEPES pH 8.0, 2 mM MgCl2, 0.1 mM EDTA, 10 ug/ml BSA, 0.02% Tween-20 (running buffer), EMSA: 2 ng biotin probe in 10 uL, Beyotime …

Picl (Msm icl promoter)
Kd [1]: 33.7 nM
Kd (His-PrpR): 171 nM
